Results reported in patent publication US20110256132A1 (published 2011).
* marks the point of attachment. Biotin = O=C1N[C@H]2[C@H](CS[C@H]2CCCCC(=O)*)N1

Legend:
[1] = target: T1, mature myostatin (recombinant, dimeric) (mouse polyprotein used for in-house …, UniProt O08689 268-376); assay: BIAcore T100, antibody captured on anti-mouse IgG (C1 chip), myostatin analyte, all curves 1:1 model
T1 construct: also called GDF-8; recombinant myostatin
T1 sequence: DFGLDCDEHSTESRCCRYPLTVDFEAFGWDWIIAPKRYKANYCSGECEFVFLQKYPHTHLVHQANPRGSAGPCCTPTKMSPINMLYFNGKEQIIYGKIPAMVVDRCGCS
Procedure: (§1) The affinity of 10B3 mouse parental and 10B3C for recombinant myostatin was assessed by BIAcore™ (surface plasmon resonance) analysis. Analysis was carried out by the use of a capture surface: anti-mouse IgG was coupled to a C1 chip by primary amine coupling for 10B3 mouse parental; and a protein A surface was created on a C1 chip by primary amine coupling for 10B3 chimera.
(§2) After capture, recombinant myostatin was passed over the surface at 64 nM, 16 nM, 4 nM, 1 nM, 0.25 nM and 0.0625 nM, with a buffer injection (i.e. 0 nM) used for double referencing. There was a regeneration step between each analyte injection, after which the new antibody capture event occurred before the next injection of myostatin. The data was analysed using both the 1:1 model and the Bivalent model inherent to the T100 machines analysis software (see Table 6). Both capture surfaces could be regenerated using 100 mM phosphoric acid, the work was carried out using HBS-EP as the running buffer and using 25° C. as the analysis temperature.

[2] = target: T1, mature myostatin (recombinant, dimeric); assay: ActRIIb receptor binding assay (Example 2.5), mean IC50
Procedure: Recombinant soluble ActRIIb (R&D Systems 339-RBB) was coated in wells of an ELISA plate at 1 μg/ml in carbonate buffer overnight at 4° C. Plates were blocked (see Block solution above at 2.3) and washed following standard ELISA protocols. In parallel, 2 nM biotinylated myostatin (in-house, as described in 1.1, biotinylated material) was pre-incubated with an antibody dilution series consisting of 10B3, 10B3C, and a negative control (IgG1 isotype control) for 2 hours at 37° C. The biotinylated myostatin:antibody reactions were then added to the ActRIIb coated plate for 1 hour at 37° C. Standard wash procedures were followed prior to addition of 1:1000 diluted streptavidin-HRP conjugate (Dako P0397) and a further 37° C. incubation for 1 hour. Plates were again washed and assayed at absorbance 490 nm following OPD substrate (Sigma) and acid stop solution treatment Inhibition curves and IC50 values for the inhibition of myostatin activity are shown in FIG. 5 and Table 8 respectively.
H2L2 C91S_G55S F100G_Y, the developability enhanced molecule with the highest apparent potency in the A204 assay was Fc-disabled (by making the following substitutions, using EU numbering system: Leu 235 Ala; and Gly 237 Ala) as exemplified in SEQ ID NO: 99.

[3] = target: T2, human myostatin pro-peptide dimer (human, UniProt O14793 25-266); assay: ELISA, plate-coated antigen
T2 sequence: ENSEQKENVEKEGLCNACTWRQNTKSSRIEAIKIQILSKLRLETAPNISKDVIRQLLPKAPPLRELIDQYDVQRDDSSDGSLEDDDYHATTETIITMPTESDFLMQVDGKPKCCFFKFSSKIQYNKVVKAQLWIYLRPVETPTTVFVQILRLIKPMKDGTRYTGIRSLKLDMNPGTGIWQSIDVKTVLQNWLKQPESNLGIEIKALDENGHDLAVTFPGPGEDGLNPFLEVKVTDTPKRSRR
Procedure: The myostatin antigens were coated onto wells of an EIA/RIA plate (Costar) at 100 ng/well at 4° C. overnight in PBS, prior to blocking (PBS, 3% BSA) for 30 minutes at room temperature. Plates were washed (PBS, 1% BSA and 0.1% Tween20), prior to the addition of a dilution series of 10B3 in wash buffer and incubation for 2 hours at room temperature. […] A final wash step preceded addition of TMB substrate and colorimetric change which was stopped with Sulphuric acid and plates read at 450 nm.

[4] = target: T1, mature myostatin (recombinant, dimeric); assay: FORTEbio bio-layer interferometry, myostatin amine-coupled to sensor, 20 nM antibody, 1:1 fit
Procedure: The affinity of 10B3 mouse parental and H2L2-C91S developability variant for recombinant myostatin was also assessed by FORTEbio™ (bio-layer inferometry) analysis. FORTEbio™ analyses were carried out by antigen capture. Myostatin (in-house, see above at 1.1) was coupled onto amine reactive biosensors by primary amine coupling in accordance with the manufacturer's instructions. Antibodies were then captured onto this surface at 20 nM concentrations. The data was analysed using the evaluation software inherent in the machine and the data analysed using 1:1 fit (see Table 16). Due to the limited number of myostatin molecules bound to the sensor surface and the low antibody concentration, avidity effects are reduced, enabling a more accurate measure of affinity compared to the Biacore analyses. […] However, due to the nature of the binding of the antibodies to myostatin, these values are mainly used for ranking purposes, and the affinity may not be representative of the affinity in vivo.

[5] = target: T1, mature myostatin (recombinant, dimeric); assay: cell-based or functional assay
[6] = target: T1, mature myostatin (recombinant, dimeric); assay: BIAcore T100, antibody captured on anti-mouse IgG (C1 chip), myostatin analyte, all curves Bivalent model
Procedure: as §1, §2

[7] = target: T1, mature myostatin (recombinant, dimeric); assay: ELISA, plate-coated myostatin (R&D Systems), mean EC50
Procedure: 10B3 and 10B3 chimera (10B3C) bound myostatin (R&D Systems, 788-G8-010/CF) in a sandwich ELISA. Plates were coated with myostatin at 10 ng/well and blocked with Block solution (PBS, 0.1% TWEEN and 1% BSA). Following washing (PBS, 0.1% TWEEN), antibody was incubated at 37° C. for 2 hours over a dilution series and plates washed again prior to incubation at 37° C. for 1 hour with anti-mouse HRP or anti-human HRP (Dako, P0161 & Sigma, A-8400, respectively). Plates were again washed and OPD substrate (Sigma, P9187) added until colourometric reaction occurred and the reaction stopped by the addition of H₂SO₄.

[8] = target: T3, artificial myostatin linear peptide 39 (SMILES …); assay: SRU BIND reader, peptides captured on streptavidin biosensor plate
T3 construct: also called Peptide No 39
T3 peptide: Biotin-SGSGTKMSPINMLYFNGK-NH2
Procedure: Work was carried out on an SRU BIND reader (SRU Biosystems). A streptavidin biosensor plate was washed, a baseline reading taken, and biotinylated peptides captured onto the streptavidin coated biosensor plate. The plate was washed again, and a new baseline reading taken, antibody was then added and binding monitored.

B1: mouse monoclonal antibody 10B3 (antibody, V domains shown)
VH: EVQLQQSGPELVKPGASVKISCKASGYSFTGYFMHWVKQSHGNILDWIGNIYPYNGVSNYNQRFKAKATLTVDKSSSTAYMELRSLTSEDSAVYYCARRYYYGTGPADWYFDVWGTGTTVTVSS
VL: DIKMTQSPSSMYASLRERVTITCKASQDINSYLSWFQQKPGKSPKTLIYRANRLVDGVPSRFSGSGSGQDYSLTISSLEYEDMGIYYCLQCDEFPLTFGAGTKLELK
notes: Mouse IgG2a/kappa from hybridoma; also called 10B3 mouse parental; 10B3 parental
Kd [1]: 1 nM
IC50 [2]: 0.161 nM
binding result [3]: no binding
Kd [4]: 0.31 nM
koff [4]: 0.000131 s⁻¹
kon [4]: 424000 M⁻¹ s⁻¹
Mean IC50, A204 in vitro activity assay [5]: 8.5 nM
Kd [6]: 5.9 nM
EC50 [7]: 0.069 µg/mL
binding result [8]: no binding
